How the values were obtained:
Details in all cases: partners not purified
[1] = target: T1, L. acidophilus S-layer A protein (SlpA), on L. acidophilus ATCC 4356 cells (Lactobacillus acidophilus ATCC 4356, UniProt P35829); test: flow cytometry on cells; scFv culture supernatant (200 μl, unpurified) incubated with 10^6-10^7 washed bacteria in PBS, 1 h at RT; detected with anti-SV5-PE; BD LSRII
T1 construct: the flow cytometry itself was done on whole bacteria; also called S-layer protein A; Surface layer protein A; source: endogenous, on intact L. acidophilus ATCC 4356 cells

[2] = target: T2, L. acidophilus S-layer A protein (Lactobacillus acidophilus (ATCC 4356; …, UniProt P35829); test: flow cytometry on cells; 200 μl scFv culture supernatant added to 10^6-10^7 washed bacteria in PBS, 1 h at RT; detected with anti-SV5-PE; BD LSRII
T2 construct: S-layer A protein (SlpA) of Lactobacillus acidophilus, Uniprot P35829; band of ~45 kDa; On the bacterial surface in flow cytometry; denatured (SDS, β-mercaptoethanol, boiled) on the blot; The MS search used an L. acidophilus NCFM database; also called SlpA; S-layer protein A

[3] = target: T3, L. acidophilus S-layer A protein (SlpA), on L. acidophilus ATCC 832 cells (Lactobacillus acidophilus ATCC 832; …, UniProt P35829); test: flow cytometry on cells; scFv culture supernatant (200 μl, unpurified) incubated with 10^6-10^7 washed bacteria in PBS, 1 h at RT; detected with anti-SV5-PE; BD LSRII
T3 construct: the flow cytometry was done on whole bacteria; also called L. acidophilus st; source: endogenous, on intact L. acidophilus ATCC 832 cells
T3 sequence (P35829 25-444): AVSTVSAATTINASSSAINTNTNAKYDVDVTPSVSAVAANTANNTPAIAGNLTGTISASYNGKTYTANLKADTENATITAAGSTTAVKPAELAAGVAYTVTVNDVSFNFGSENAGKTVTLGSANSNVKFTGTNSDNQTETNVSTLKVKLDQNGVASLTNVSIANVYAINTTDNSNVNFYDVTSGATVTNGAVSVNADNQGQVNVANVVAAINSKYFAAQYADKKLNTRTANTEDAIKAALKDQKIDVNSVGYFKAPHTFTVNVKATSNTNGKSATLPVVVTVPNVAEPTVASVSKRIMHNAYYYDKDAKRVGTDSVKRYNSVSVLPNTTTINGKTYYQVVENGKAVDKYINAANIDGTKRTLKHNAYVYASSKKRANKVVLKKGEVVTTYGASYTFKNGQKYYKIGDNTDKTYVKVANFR

T2 sequence (P35829 25-444): as above
T1 sequence (P35829 25-444): as above

Row | binding result [1] | binding result [2] | binding result [3] | Binder
1 |  | binds |  | α-La4 scFv (scFv, V domains shown, The vector adds an N-terminal PelB leader; source: E. coli BL21 Gold, pEP-GFP11, culture supernatant; not shown: SV5, C-terminal, kept) VH: QVQLQQSGPGLVKPSQILSLTCAISGDSVSSNSADWNWIRQSPSRGLEWLGRTYYRSKWYNDYAVLVKSRITINPDTSKNQFSLQLNSVTPEDTAVYYCARGSLGAFDIWGQGTMVTVSS VL: QAVVTQEPSASETPGQRVTISCSGSDSNIGSNYVYWYQQVPGTAPKLVIYRNNQRPSGVPDRFSGSKSGTSASLGIRGLQSEDEADYYCAAWDDSVSGWVFGGRTKLTVL
2 | binds |  | binds | α-La3 scFv (scFv, V domains shown, residues before the VL; VL of α-La3; linker between VL and VH; VH of α-La3; residues between the VH and the SV5 tag; Expressed from pEP-GFP11 with an N-terminal PelB leader and C-terminal SV5, 6x His and GFP strand 11 tags; limits of VL, linker and VH and the reading of GAHA and AS as vector-derived residues are my surmise; also called anti-La3; source: E. coli …) VH: QVQLQESGPGLVKPSETLSLTCAISGDSVSSNSAAWNWIRQSPSRGLEWLGRTYYRSKWYNDYAVSVKSRITINPDTSKNQFSLQLNSVTPEDTAVYYCATGDAFDMWGQGTMVTVSS VL: SYVLTQPPSVSGTPGQRVTISCSGSSSNIERNYVYWYQQLPGTAPKLLIYRNNQRPSGVPDRFSGSKSGTSASLAISGLRSEDEADYYCAAWDDSQNAYVFGTGTKLTVL
3 |  | binds |  | α-La3 scFv (scFv, V domains shown, The vector adds an N-terminal PelB leader; source: E. coli BL21 Gold, pEP-GFP11, culture supernatant; not shown: SV5, C-terminal, kept) VH: QVQLQESGPGLVKPSETLSLTCAISGDSVSSNSAAWNWIRQSPSRGLEWLGRTYYRSKWYNDYAVSVKSRITINPDTSKNQFSLQLNSVTPEDTAVYYCATGDAFDMWGQGTMVTVSS VL: SYVLTQPPSVSGTPGQRVTISCSGSSSNIERNYVYWYQQLPGTAPKLLIYRNNQRPSGVPDRFSGSKSGTSASLAISGLRSEDEADYYCAAWDDSQNAYVFGTGTKLTVL

More lines, now with the values behind:

Row | Binder | binding result [1] | binding result [2] | binding result [3]
4 | α-La2 scFv (scFv, V domains shown, residues before the VL; VL of α-La2; linker between VL and VH; VH of α-La2; residues between the VH and the SV5 tag; Expressed from pEP-GFP11 with an N-terminal PelB leader and C-terminal SV5, 6x His and GFP strand 11 tags; limits of VL, linker and VH and the reading of GAHA and AS as vector-derived residues are my surmise; also called anti-La2; source: E. coli …) VH: EVQLVETGGGLVKPGGSLRLSCAASGFTLSNAWMHWVRQAPGKGLEWVGRIRRKTDGGTTDYAAPVKGRFTISRDDSKNTLYLQMNSLKTEDTAVYYCSTDDYGGNWGQGTLVTVSS VL: QSVLTQPASVSGSPGQSITISCTGTSSDVGSYNYVSWYQQHPGKAPKLMIYDVSNRPSGVSNRFSGSKSGNTASLTISGLQAEDEADYYCSSYTSSSTNVFGTGTQLTVL | binds |  | 
5 | α-La2 scFv (scFv, V domains shown, The vector adds an N-terminal PelB leader; also called anti-La2; source: E. coli BL21 Gold, pEP-GFP11, culture supernatant; not shown: SV5, C-terminal, kept) VH: EVQLVETGGGLVKPGGSLRLSCAASGFTLSNAWMHWVRQAPGKGLEWVGRIRRKTDGGTTDYAAPVKGRFTISRDDSKNTLYLQMNSLKTEDTAVYYCSTDDYGGNWGQGTLVTVSS VL: QSVLTQPASVSGSPGQSITISCTGTSSDVGSYNYVSWYQQHPGKAPKLMIYDVSNRPSGVSNRFSGSKSGNTASLTISGLQAEDEADYYCSSYTSSSTNVFGTGTQLTVL |  | binds | 
6 | α-La1 scFv (scFv, V domains shown, residues before the VL; VL of α-La1; linker between VL and VH; VH of α-La1; residues between the VH and the SV5 tag; Expressed from pEP-GFP11 with an N-terminal PelB leader and C-terminal SV5, 6x His and GFP strand 11 tags; limits of VL, linker and VH and the reading of GAHA and AS as vector-derived residues are my surmise; also called anti-La1; α-La scFv; source: …) VH: QVQLQQSGPGLVKPSQTLSLACAISGDSVSSNSAAWNWIRQSPSRGLEWLGRIYYRSKWYNDYAVSVKSRITINPDTSKNQFSLQLNSVTPEDTAVYYCARERYGAFDIWGQGTMVTVSS VL: SYELTQPPSASGTPGQRVTISCSGSSSNIGSNYVYWYQQLPGTAPKLLIYRNNQRPSGVPDRFSGSKSGTSASLAITGLQAEDEADYYCQSYDSSLSGYVFGTRTKLTVL | binds |  | binds
7 | α-La4 scFv (scFv, V domains shown, residues before the VL; VL of α-La4; linker between VL and VH; VH of α-La4; residues between the VH and the SV5 tag; Expressed from pEP-GFP11 with an N-terminal PelB leader and C-terminal SV5, 6x His and GFP strand 11 tags; limits of VL, linker and VH and the reading of GAHA and AS as vector-derived residues are my surmise; also called anti-La4; source: E. coli …) VH: QVQLQQSGPGLVKPSQILSLTCAISGDSVSSNSADWNWIRQSPSRGLEWLGRTYYRSKWYNDYAVLVKSRITINPDTSKNQFSLQLNSVTPEDTAVYYCARGSLGAFDIWGQGTMVTVSS VL: QAVVTQEPSASETPGQRVTISCSGSDSNIGSNYVYWYQQVPGTAPKLVIYRNNQRPSGVPDRFSGSKSGTSASLGIRGLQSEDEADYYCAAWDDSVSGWVFGGRTKLTVL | binds |  | binds
